{
  "source": "patent US10849992B1",
  "about": "“Methods of screening for sortilin binding antagonists” (ALECTOR LLC, priority 2015, dated 2020)",
  "key": {"Sortilin [1]": {"molecular_target": "T1, Sortilin (Homo sapiens, UniProt Q99523)", "T1 sequence (Q99523 78-831)": "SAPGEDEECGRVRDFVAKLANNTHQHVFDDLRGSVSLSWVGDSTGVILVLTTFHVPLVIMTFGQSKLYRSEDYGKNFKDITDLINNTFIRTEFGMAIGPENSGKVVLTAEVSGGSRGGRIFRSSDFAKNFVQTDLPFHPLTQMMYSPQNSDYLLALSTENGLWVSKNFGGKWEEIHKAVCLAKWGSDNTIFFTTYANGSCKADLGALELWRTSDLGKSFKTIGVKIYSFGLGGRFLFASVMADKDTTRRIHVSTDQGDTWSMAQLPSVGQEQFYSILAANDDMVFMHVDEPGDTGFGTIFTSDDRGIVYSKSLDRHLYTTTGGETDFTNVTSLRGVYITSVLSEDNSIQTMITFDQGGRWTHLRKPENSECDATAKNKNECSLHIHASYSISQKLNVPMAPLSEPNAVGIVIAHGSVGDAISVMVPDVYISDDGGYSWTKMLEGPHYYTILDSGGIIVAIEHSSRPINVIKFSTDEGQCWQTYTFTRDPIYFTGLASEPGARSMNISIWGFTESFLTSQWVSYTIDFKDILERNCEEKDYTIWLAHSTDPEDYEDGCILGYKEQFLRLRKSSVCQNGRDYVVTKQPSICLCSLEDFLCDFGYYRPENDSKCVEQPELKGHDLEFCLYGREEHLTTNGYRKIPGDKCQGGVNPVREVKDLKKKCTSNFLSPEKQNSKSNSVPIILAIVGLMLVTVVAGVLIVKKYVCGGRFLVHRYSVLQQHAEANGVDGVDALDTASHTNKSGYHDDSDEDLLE", "experiment": "Cell-based microscopy assay: DyLight-650 PGRN binding and endocytosis", "set-up": "expressed in transfected cells; host or cells: HEK293T", "conditions": "10 μM blocker with 40 nM DyLight-650 PGRN, listed as sortilin pro-peptide", "description": "HEK293T cells were transiently transfected with constructs for expressing sortilin or LacZ (control) and incubated with PGRN labeled using DyLight-650 (Life Technologies, Carlsbad, Calif.) for up to 60 minutes at 37° C. Binding and endocytosis of PGRN were observed by fluorescence microscopy. Recombinant human Progranulin (Adipogen) was labeled with DyLight 650 (Life Technologies, Carlsbad, Calif.). Cells were transiently transfected with human Sortilin or lacZ (control) and GFP using Fugene and harvested after 24 h. GFP was either expressed by a second vector (Topo3.3, Invitrogen) or located on the same vector, separated by an IRES (pCMV6-AC-IRES-GFP, Origene). Full-length Sortilin was used either untagged (Topo3.3) or with a C-terminal myc tag (pCMV6-AC-IRES-GFP). Cells were then plated on microscopy chambered glass slides coated with poly-1-lysine. After 4-6 h, cells were washed in OptiMem serum-free media, and 40 nM Progranulin-650 was added with or without 10 uM Sortilin pro-peptide as a blocker. Cells were incubated at 37° C. for up to 60′. Subsequently, cells were fixed in 4% paraformaldehyde, washed in PBS and imaged on a Nikon fluorescent microscope."}, "Sortilin [2]": {"molecular_target": "T1, Sortilin", "experiment": "Cell-based PGRN-conditioned media assay (PGRN ELISA)", "set-up": "expressed in transfected cells; host or cells: HEK293T", "conditions": "sortilin-expressing HEK293T; 36-48 h; 1 or 10 μM pro-peptide, 6.7 or 67 nM antibody", "description": "HEK293T cells were transiently transfected with constructs for expressing sortilin or LacZ (control) and incubated with PGRN-conditioned media collected from PGRN transfected HEK293T cells. PGRN levels remaining in the media were measured after 36-48 h using a PGRN ELISA Duoset kit (R&D Systems). Cells were incubated with 1 or 10 μM sortilin pro-peptide, 6.7 nM or 67 nM goat anti-sortilin antibody (SORT1 Ab), or 67 nM control IgG.\nTo prepare hPGRN-conditioned media, Hek293T cells were transiently transfected with full-length, untagged human PGRN (pCMV-Sport6, Thermo Scientific) using Fugene HD (Promega). Media containing PGRN was collected after 48 h. For the experiment, Hek293T cells were transiently transfected with human Sortilin (untagged in Topo3.3) or lacZ (control, Topo3.3) using Fugene HD. After 4-6 h, media containing a 1:5 dilution of PGRN conditioned media was added to the cells with or without blockers [1 or 10 uM Sortilin pro-peptide; 6.7 or 67 nM goat anti-Sortilin antibody (SORT1 Ab, R&D Systems, AF3154) or control IgG (R&D Systems, AB-108-C)]. Cell supernatant was collected after 48 h and analyzed using a PGRN Elisa Duoset kit (R&D Systems, DY2420)."}, "Sortilin [3]": {"molecular_target": "T1, Sortilin", "experiment": "FACS assay: sortilin-mediated PGRN-DyLight650 binding and endocytosis", "assay_type": "cell-based", "set-up": "Full-length Sortilin was used either untagged (Topo3.3) or with a C-terminal myc tag (pCMV6-AC-IRES-GFP); myc (only in the pCMV6-AC-IRES-GFP construct); expressed in transfected cells; host or cells: HEK293T", "conditions": "FIG. 10B", "text": "Sortilin-expressing cells were GFP-positive, and untransfected cells were GFP-negative (as labeled in FIG. 10A).\nA second assay was developed using DyLight-650-conjugated PGRN protein. In this assay, binding and endocytosis of PGRN were observed using either fluorescence microscopy (FIG. 9A-9F) or FACS (FIGS. 10A and 10B)."}},
  "note": "Entries after “also recorded” stand apart in the source; their conditions may differ.",
  "data": [
    {"substance": "sortilin pro-domain peptide: peptide of the Sortilin1 pro-domain used as a blocker of PGRN binding (QDRLDAPPPPAAPLPRWSGPIGVSWGLRAAAAGGAFPRGGRWRR)", "values": [
      {"measurement": "PGRN binding and endocytosis (DyLight-650 fluorescence)", "setting": "Sortilin [1]", "value": "not observed; also recorded: little signal"},
      {"measurement": "PGRN levels in the media (rescue of sortilin-mediated reduction)", "setting": "Sortilin [2]", "value": "partially rescued"},
      {"measurement": "blocking of PGRN binding to transfected cells", "setting": "Sortilin [3]", "value": "blocked"}
    ]}
  ]
}
